Numbering of substitutions follows the chain as printed. Like-named read-outs stand apart in the source and are kept apart here.
Columns and labels:
[1] = biological target: T1, human CD47 expressed on cells (CD47 expressing CHO cells, Jurkat, HL60, DLD1, Raji) (human, UniProt Q08722 19-292); test: IC50 as grade, SIRPα blocking on Raji cells (second part of the table); legend ++: >1 nM and <20 nM
T1 construct: also called CHO-CD47; IAP

[2] = biological target: T1, human CD47 expressed on cells (CD47 …); test: flow cytometry on human platelets, donor 1, MFI
[3] = biological target: T1, human CD47 expressed on cells (CD47 …); test: flow cytometry blocking assay on Raji cells, SIRPα is the blocked ligand, MFI
[4] = biological target: T2, human CD47-Fc protein (Novoprotein, Cat#CG18) (human, UniProt Q08722 19-139); test: IC50 (nM) as grade, neutralizing ELISA, CD47-hFc on SIRPα coated plate; legend ++++: <8 nM
T2 construct: Bought protein; also called CD47-hFc; hCD47-hFc fusion protein; not shown: human IgG Fc of the bought fusion protein

[5] = biological target: T1, human CD47 expressed on cells (CD47 …); test: flow cytometry on human red blood cells, donor 2, MFI; EC50 (nM) table beside the legend
[6] = biological target: T1, human CD47 expressed on cells (CD47 …); test: EC50 (nM) as grade, binding on CHO-CD47 cells; legend +++: >0.05 nM and <1 nM
[7] = biological target: T1, human CD47 expressed on cells (CD47 …); test: EC50 (nM) as grade, binding on Jurkat cells; legend +++: >0.05 nM and <1 nM
[8] = biological target: T2, human CD47-Fc protein (Novoprotein, …); test: IC50 (nM) as grade, blocking of soluble CD47 binding to SIRPα-expressing CHO cells; legend ++: >1 nM and <10 nM
[9] = biological target: T3, CD47 protein (construct not stated; SPR antigen, CD47 coated ELISA plates) (Homo sapiens (Human), UniProt Q08722 19-139, limits assumed); test: SPR (Biacore T100), affinity (nM) as grade; legend +: >10 nM and <40 nM
T3 construct: also called the antigen

[10] = biological target: T4, CHO/mCD47-GFP (mouse, UniProt Q61735); test: flow cytometry on CHO cells expressing mouse CD47-GFP, binding percentage
T4 construct: on the cell surface; also called mouse CD47 expressed on CHO cells; CHO cell expressing mouse CD47
T4 sequence (receptor, looked up): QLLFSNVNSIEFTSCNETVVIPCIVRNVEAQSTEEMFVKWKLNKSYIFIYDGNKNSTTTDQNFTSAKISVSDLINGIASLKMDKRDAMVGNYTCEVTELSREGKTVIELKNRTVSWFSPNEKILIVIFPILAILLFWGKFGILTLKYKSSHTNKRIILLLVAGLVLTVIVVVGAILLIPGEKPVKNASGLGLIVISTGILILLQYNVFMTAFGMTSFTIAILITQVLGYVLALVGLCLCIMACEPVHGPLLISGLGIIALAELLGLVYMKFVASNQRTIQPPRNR

[11] = biological target: T1, human CD47 expressed on cells (CD47 …); test: flow cytometry on human red blood cells, MFI
[12] = biological target: T1, human CD47 expressed on cells (CD47 …); test: flow cytometry on human platelets, MFI
[13] = biological target: T5, CD47 on monkey RBC (Macaca fascicularis, UniProt A0A2K5X523); test: flow cytometry on cynomolgus monkey red blood cells expressing CD47, MFI
T5 construct: native, on red blood cells; also called cynomolgus monkey red blood cells expressing CD47

[14] = biological target: T1, human CD47 expressed on cells (CD47 …); test: flow cytometry blocking assay on Raji cells, SIRPα is the blocked ligand, MFI; remark: listed apart in the source
[15] = biological target: T1, human CD47 expressed on cells (CD47 …); test: IC50 (nM) Frequency as grade, blocking biotinylated SIRPa-Fc binding to DLD1 cells; legend +++: <1 nM
[16] = biological target: T1, human CD47 expressed on cells (CD47 …); test: IC50 (nM) MFI as grade, blocking biotinylated SIRPa-Fc binding to DLD1 cells; legend +: >20 nM
[17] = biological target: T1, human CD47 expressed on cells (CD47 …); test: flow cytometry on DLD1 cells, IgG, frequency
[18] = biological target: T1, human CD47 expressed on cells (CD47 …); test: EC50 (nM) as grade, flow cytometry, Fab on HL60 cells; legend +++: <1 nM
[19] = biological target: T6, biotin labelled polyhistidine tagged CD47 protein (Novoprotein, Cat#321) (human, UniProt Q08722 19-139, biotin labelled (site not stated)); test: IC50 (nM) as grade, Fab blocking biotinylated CD47 binding to SIRPα-CHO cells; legend ++: >10 nM and <65 nM
T6 construct: Bought protein; also called biotinylated CD47; biotinylated human CD47 protein; not shown: polyhistidine tag

[20] = biological target: T1, human CD47 expressed on cells (CD47 …); test: EC50 (nM) as grade, flow cytometry, Fab on DLD1 cells; legend ++: >5 nM and <60 nM

B1: H-ABU 9 (antibody, V domains shown)
VH: QVQLVQSGAEVKKPGASVKVSCKASGYTFTDLYINWVRQAPGQRLEWMGWIYLGSGNTKYNEKFKGRVTITRDTSASTAYMELSSLRSEDTAVYYCARREERGFAYWGQGTLVTVSS
VL: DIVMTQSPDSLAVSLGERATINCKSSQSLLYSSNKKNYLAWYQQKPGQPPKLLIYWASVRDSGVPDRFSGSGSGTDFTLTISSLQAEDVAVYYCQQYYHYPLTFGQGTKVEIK
With B1 the IC50 [1] was 1 to 20 nM, the “EC50 (read off the curve)” value [2] was about 1 nM and the “IC50 (read off the curve)” value [3] was about 8 nM.

B2: ABU5 (antibody, V domains shown)
VH: QVQLQQPGAELVKPGASVKMSCKASGYTFTNYWIAWVKRRPGQGLEWIGDFYPGNTSTNYNEKFKTKATLTIDTSSSTAYMQLSSLTSEDSAVYYCARRGRGGSSYWGQGTTLTVSS
VL: DVLMTQTPLSLPVSLGEQASISCRSSQSIVHSNGNTYLEWYLQKPGQSPKLLIYRVANRFSGVPDRFSGSGSGTDFTLKISRVEAEDLGVYYCFQGSHVPWTFGGGTKLEIK
notes: Murine hybridoma monoclonal antibody; also called ABUS [sic]
B2 showed an IC50 [4] of under 8 nM, an EC50 [5] of 0.86 nM and an EC50 [6] of 0.05 to 1 nM. For the same binder, the EC50 [7] was 0.05 to 1 nM, the IC50 [8] was 1 to 10 nM and the “Affinity by SPR” value [9] was 10 to 40 nM. B2: no binding (tested: about 0.4 ug/ml) [10].

B3: H-ABU41-IgG4-P (antibody)
light chain: DVQITQSPSSLSASVGDRVTITCRASKNIGKYLAWFQQKPGKTNKLLIYSGSTLQSGIPSRFSGSGSGTDFTLTISSLQPEDFATYYCQQHNEYPYTFGGGTKVEIK
heavy chain: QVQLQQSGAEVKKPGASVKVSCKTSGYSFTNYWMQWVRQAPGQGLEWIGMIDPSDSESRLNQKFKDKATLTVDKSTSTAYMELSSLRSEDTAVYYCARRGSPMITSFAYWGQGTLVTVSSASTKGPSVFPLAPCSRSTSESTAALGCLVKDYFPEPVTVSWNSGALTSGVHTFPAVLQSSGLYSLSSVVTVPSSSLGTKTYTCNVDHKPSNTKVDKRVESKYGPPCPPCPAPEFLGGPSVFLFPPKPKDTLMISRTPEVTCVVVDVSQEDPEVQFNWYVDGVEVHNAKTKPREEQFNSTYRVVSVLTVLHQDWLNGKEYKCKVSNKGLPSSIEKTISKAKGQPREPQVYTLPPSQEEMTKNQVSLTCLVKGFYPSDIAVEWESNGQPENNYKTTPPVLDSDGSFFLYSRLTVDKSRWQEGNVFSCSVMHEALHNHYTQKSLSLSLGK
In the case of B3, the “EC50 (read off the curve)” value [11] is reported as about 4 nM, the “EC50 (read off the curve)” value [12] is reported as about 2 nM and the “EC50 (read off the curve)” value [13] is reported as about 0.1 µg/mL. The “IC50 (read off the curve)” value [14] was about 5 nM.

B4: H-ABU41-IgG4-PE (antibody)
light chain: B3 light chain
heavy chain: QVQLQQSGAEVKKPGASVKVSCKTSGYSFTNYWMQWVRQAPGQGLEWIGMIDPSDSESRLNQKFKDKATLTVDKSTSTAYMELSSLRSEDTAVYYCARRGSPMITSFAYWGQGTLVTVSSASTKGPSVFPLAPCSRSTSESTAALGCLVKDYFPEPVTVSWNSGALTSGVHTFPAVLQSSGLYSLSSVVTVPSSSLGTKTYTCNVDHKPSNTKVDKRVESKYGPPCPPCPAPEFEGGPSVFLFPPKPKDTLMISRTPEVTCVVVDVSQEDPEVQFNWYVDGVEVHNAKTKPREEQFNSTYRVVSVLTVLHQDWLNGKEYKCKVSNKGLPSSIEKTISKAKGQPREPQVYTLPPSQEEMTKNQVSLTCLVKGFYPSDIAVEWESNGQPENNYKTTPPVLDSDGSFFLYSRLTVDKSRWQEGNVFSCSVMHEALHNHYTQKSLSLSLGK
In the case of B4, the “EC50 (read off the curve)” value [11] is reported as about 4 nM, the “EC50 (read off the curve)” value [12] is reported as about 2 nM and the “EC50 (read off the curve)” value [13] is reported as about 0.1 µg/mL. The “IC50 (read off the curve)” value [14] was about 3 nM.

B5: ABU40 (IgG, chimeric version of the Fab) (antibody, V domains shown)
VH: EVQLQQPGTELVKPGASVKLSCKASGYSFTTYWMHWVKQRPGQGLEWIGNINPSSGDSHYNEKFKSKATLTVDKSSSTAYMQLNSLTSEDSAVYYCARDYYGAYWGHGTLVTVSA
VL: DIQMTQSPASLSASVGETVTITCRASENIYSYLAWYQQKQGKSPQLLVYNAKTLAEGVPSRFSGSGSGTQFSLKINSLQPEDFGSYYCQHHYGTPLTFGAGTKLELK
With B5 the IC50 [15] was under 1 nM, the IC50 [16] was over 20 nM and the “EC50 (read off the curve)” value [17] was about 7 nM.

B6: ABU24 (IgG, chimeric version of the Fab) (antibody, V domains shown)
VH: EVQLQQPGTELVKPGASVKLSCKASGYTFTSYWMHWVKQRPGQGLEWIGNVVPNNDGTNYNEKFRNKATLTVDKSSSTAYMQLSSLTSEDSAVYYCAVTYFAYWGQGTLVTVSA
VL: DAVVTQESALTTSPGETVTLTCRSSTGAVSTSNYANWVQEKPDHLFTGLIGGTNNRAPGVPARFSGSLIGDKAALTITGAQTEDEAIYFCALWYSNHWVFGGGTKLTVL
For B6, the IC50 [15] was under 1 nM, the IC50 [16] was over 20 nM and the “EC50 (read off the curve)” value [17] was about 10 nM.

B7: ABU8 (Fab) (Fab, V domains shown)
VH: EVQLQQSGTELVKPGASVKLSCKASGYTFISYWMHWVKQRPGQGLEWIGNINPSSGNTNYNEKFKTKATLTVDKSSSTAYMQLSSLTSEDSAVYYCVRDYYGNYWGQGTTVTVSS
VL: B5 VL with N76K, A100G
For B7, the EC50 [18] was under 1 nM, the IC50 [19] was 10 to 65 nM and the EC50 [20] was 5 to 60 nM.

— patent US20200247886A1 (ZLIP, published 2020)
